These results are taken from US20160215065A1 (Genentech, published 2016).

“And” between values parts separate entries of the source, which are not always exact repeats. Equal entries are not always repeated. Some results are limits rather than exact numbers.

In assay [1] the target is T1, mouse zymogen NSP4 (mZ) (mouse), Q14B24.
T1 chain: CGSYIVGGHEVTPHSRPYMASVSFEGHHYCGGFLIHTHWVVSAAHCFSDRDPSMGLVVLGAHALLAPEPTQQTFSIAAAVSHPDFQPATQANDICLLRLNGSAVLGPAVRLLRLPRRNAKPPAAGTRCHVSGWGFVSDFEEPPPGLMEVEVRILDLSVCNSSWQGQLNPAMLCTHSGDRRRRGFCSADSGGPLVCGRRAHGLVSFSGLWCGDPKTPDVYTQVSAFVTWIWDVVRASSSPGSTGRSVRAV
Nature of the assay: BLI affinity class in summary table. Conditions: remark: other sources report otherwise.

Assay [2] concerns the target T2, mouse active NSP4 (mA) (mouse), Q14B24.
T2 chain: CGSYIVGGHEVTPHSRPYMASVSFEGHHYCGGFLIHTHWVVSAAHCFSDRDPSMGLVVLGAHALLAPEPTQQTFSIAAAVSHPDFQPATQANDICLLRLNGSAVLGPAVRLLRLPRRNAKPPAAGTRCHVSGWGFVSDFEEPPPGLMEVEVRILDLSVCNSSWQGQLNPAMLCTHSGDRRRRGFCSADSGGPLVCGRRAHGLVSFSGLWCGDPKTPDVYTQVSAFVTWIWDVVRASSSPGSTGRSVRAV
Kind of assay: BLI affinity class in summary table. The note with it: remark: other sources report otherwise.

For assay [3] the target is unchanged. Nature of the assay: competition phage ELISA (phage IC50); soluble mA-NSP4 against plate-coated NSP4. The note with it: remark: other sources report otherwise.
In assay [4] the target is T3, recombinant mouse NSP4 (form not stated) (mouse, UniProt Q14B24 40-284, limits assumed).
T3 construct: also called mNSP4; soluble mNSP4
T3 sequence (looked up): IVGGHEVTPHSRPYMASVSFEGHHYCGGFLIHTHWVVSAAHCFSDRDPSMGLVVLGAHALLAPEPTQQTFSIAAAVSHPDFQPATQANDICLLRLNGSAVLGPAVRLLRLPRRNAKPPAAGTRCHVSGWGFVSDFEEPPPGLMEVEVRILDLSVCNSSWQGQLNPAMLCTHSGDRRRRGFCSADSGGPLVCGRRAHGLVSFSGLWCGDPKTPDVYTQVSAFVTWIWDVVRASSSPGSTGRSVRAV
Kind of assay: ratio of phage IC50 values against the parental clone 51.WT.

Assay [5] deals with T3, recombinant mouse NSP4 (form not stated). Kind of assay: phage competition binding assay (phage IC50); soluble mNSP4 competitor.

B1: anti-NSP4 antibody 5-2 (antibody, V domains shown)
VH: EVQLVESGGGLVQPGGSLRLSCAASGFTFSNTYISWVRQAPGKGLEWVGFIYPANGATYYADSVKGRFTISADTSKNTAYLQMNSLRAEDTAVYYCARRYRLSFDYWGQGTLVTVSS
VL: DIQMTQSPSSLSASVGDRVTITCRASQDVSTAVAWYQQKPGKAPKLLIYSASFLYSGVPSRFSGSGSGTDFTLTISSLQPEDFATYYCQQSYTTPPTFGQGTKVEIKR
With B1, the Kd in assay [1] is > 50 nM and < 1000 nM; in assay [2], < 50 nM. For the same molecule, the half-maximal inhibitory concentration (IC50) in assay [3] came out at 25 nM.

B2: affinity matured anti-NSP4 antibody clone 51.59 (Fab, V domains shown)
VH: EVQLVESGGGLVQPGGSLRLSCAASGFTFSGSGIHWVRQAPGKGLEWVAWISPTGGNTYYADSVKGRFTISADTSKNTAYLQMNSLRAEDTAVYYCARVFFHNVAFDYWGQGTLVTVSS
VL: DIQMTQSPSSLSASVGDRVTITCRASQDVSTAVAWYQQKPGKAPKLLIYSASFLYSGVPSRFSGSGSGTDFTLTISSLQPEDFATYYCQQNFSSPPTFGQGTKVEIKR
Consider B2, for which the “Affinity improvement to mNSP4” value in assay [4] turned out to be 196 fold. In addition, the IC50 in assay [5] was found to be 0.095 nM.

The Kd is the constant that tells how readily two partners part at equilibrium. Higher therefore signals weaker binding. The IC50 is the concentration that gives 50% inhibition.
